Laboratory results reported in patent US20230203146A1 (Boehringer Ingelheim, published 2023).

T1: recombinant human Ang2-FLD (human, UniProt O15123 275-496, limits assumed)
T1 construct: domain: FLD; not used
T1 sequence (looked up): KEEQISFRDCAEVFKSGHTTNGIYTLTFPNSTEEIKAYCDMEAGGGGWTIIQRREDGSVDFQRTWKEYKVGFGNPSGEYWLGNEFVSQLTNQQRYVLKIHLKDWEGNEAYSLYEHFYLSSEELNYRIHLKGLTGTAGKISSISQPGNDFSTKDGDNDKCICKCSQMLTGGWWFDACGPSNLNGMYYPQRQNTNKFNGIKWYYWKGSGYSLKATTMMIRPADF

B1: VHH 55D06 (VHH)
VHH: EVQLVESGGGLVQAGGSLRLSCAASGLTLDDYAIGWFRQAPGKEREGVSSIRDNDGSTYYADSVKGRFTISSDNDKNTVYLQMNSLKPEDTAVYYCAAVPAGRLRFGEQWYPIYEYDAWGQGTLVTVSS
notes: periplasmic extract; not shown: C-terminal c-myc tag and His6 tag
B2: VHH 64G03 (VHH)
VHH: EVQLVESGGGLVQAGGSLRLSCAASGFTLDDYAIGWFRQAPGKEREGVSSIRDNDGSTYYADSVKGRSTISSDNDKNTVYLQMDSLKPEDTAVYYCAAVPAGRLRYGEQWYPIYEYDAWGQGTLVTVSS
notes: as for B1
B3: VHH 64B02 (VHH)
VHH: EVQLVESGGGLVQAGGFLRLTCAVSGFTLDDYAIGWFRQAPGKEREGVSSIRDNDGSTYYADSVKGRFTISSDNVKNTVYLQMNSLKPEDTAVYYCAAVPAGRLRFGEQWYPIYEYDAWGQGTLVTVSS
notes: as for B1
B4: VHH 64D11 (VHH)
VHH: EVQLVESGGGQAQAGGSLRLSCAVSGFTLDDYAIGWFRQAPGKEREGVSSIRDNDGSTYYTDSVKGRFTISSDNDKNTVYLQMNSLKPEDTAVYYCAAVPAGRLRFGEQWYPIYEYDAWGQGTLVTVSS
notes: as for B1
B5: VHH 65F03 (VHH)
VHH: EVQMVESGGGLVQAGGSLRLSCAASGLTLDDYAIGWFRQAPGKEREGVSSIRDNDGSTYYADSVKGRFTISSDNDKNTVYLQMNGLKPEDTAVYYCAAVPAGRLRFGEQWYPIYEYDAWGQGTLVTVSS
notes: as for B1
B6: VHH 64G11 (VHH)
VHH: EVQLVESGGGLVQAGGSLRLSCAASGITLDDYAIGWFRQAPGKERVGVSSIRDNDGSTYYADSVKGRFTISSDNDKNTVYLQMNSLKPEDTAVYYCAAVPAGRLRFGEQWYPIYEYDAWGQGTLVTVSS
notes: as for B1
B7: VHH 64A03 (VHH)
VHH: EVQLLESGGGLVQAGGSLRLSCAASGFTLDDYAIGWFRQAPGKEREGVSSIRDNDGSTYYADSVKGRFTISSDNDKNTVYLQMNSLKPEDTAVYYCAAVPAGRLRIGEQWYPIYEYDAWGQGTLVTVSS
notes: as for B1
B8: VHH 64F07 (VHH)
VHH: QVQLVESGGGLVQAGGSLRLSCAVSGFTLDDYAIGWFRQAPGKEREGVSSIRDNDGSTYYADSVKGRFTISSDNDQNTVYLQMNSLKSEDTAVYYCAAVPAGRLRFGEQWYPIYEYDAWGQGTLVTVSS
notes: as for B1
B9: VHH 58D10 (VHH)
VHH: EELLVESGGGSVQAGGSLKLSCAASGLTLDDYAIGWFRQAPGKEREGVSSIRDNDGSTYYADSVKGRFTISSDNDKNTVYLQMNSLKPEDTAVYYCAAVPAGRLRFGEQWYPIYEYDAWGQGTLVTVSS
notes: as for B1
B10: VHH 64F03 (VHH)
VHH: EVQLVESGGGLVQAGGSLRLSCAVSGITLDDYAVGWFRQAPGKEREGVSTIRDNDGSTYYADSVKGRFTISSDNDKNTVYLQMNSLKPKDTAVYYCAAVPAGRLRFGEQWYPIYEYDAWGQGTLVTVSS
notes: as for B1
B11: VHH 64C07 (VHH)
VHH: EVHLVESGGGLVQAGGSLRLSCAASGLTLDDYAIGWFRQAPGVEREGVSSIRDNDGSTYYADSVKGRFTISSDNDKNTVYLQMNSLKPEDTAVYYCAAVPAGRLRFGEQWYPIYEYDAWGQGTLVTVSS
notes: as for B1
B12: VHH 55G03 (VHH)
VHH: EVQLVESGGSLVQAGGSLRLSCAASGLTLDDYAIGWFRQAPGKEREGVSSIRDNDGSTYYADSVKGRFTISSDNDKNTVYLQMNSLKPEDTAVYYCAAVPAGRLRFGEQWYPIYEYDAWGQGTLVTVSS
notes: as for B1
B13: VHH 56A07 (VHH)
VHH: EVQLVESGGGLVQAGGSLRLSCAASGFTLDDYAIGWFRQAPGKEREGVSSIRDNDGSTYYADSVKGRSTISSDNARNTVFLQMNSLKPEDTAVYYCAAVPAGRLRFGEQWYPIYEYDAWGQGTLVTVSS
notes: as for B1
B14: VHH 55F02 (VHH)
VHH: EVQLVESGGGLVQSGGSLRLSCAASGLTLDDYAIGWFRQAPGKEREGVSSIRDNDGSTYYADSVKGRFTISSDNDKNTVYLQMNSLKPEDTAVYYCAAVPAGRLRFGEQWYPIYEYDAWGQGTLVTVSS
notes: as for B1
B15: VHH 65F01 (VHH)
VHH: EVQLVESGGGLVQAGGSLRLSCAASGLTLDDYAIGWFRQAPGKEREGVSSIRDNDGSRYYADSVKGRFTISSDNDKNTVYLQMNSLKPEDTAVYYCAAVPAGRLRFGEQWYPIYEYDAWGQGTLVTVSS
notes: as for B1
B16: VHH 64C03 (VHH)
VHH: EVQLVESGGGLVQAGGSLRLSCAASGFTLDDYAIGWFRQAPGKEREGVSSIRDNDGSTYYADSVKGRFTISSDNDKNTVYLQMNSLKPEDTAVYYCAAVPAGRLRYGEQWYPIYEYDAWGQGTLVTVSS
notes: as for B1
B17: VHH 60A06 (VHH)
VHH: EVQLVESGGGLVQAGGSLRLSCAASGFTLDDYAIGWFRQAPGKDREGVSSIRDNDGSTYYADSVKGRFTISSDNDKNTVYLQMNSLKPEDTAVYYCAAVPAGRLRYGEQWYPIYEYDAWGQGTVVTVSS
notes: as for B1
B18: VHH 64B01 (VHH)
VHH: EVQLVESGGGLVQAGGTLRLSCAVSGFTLDDYAIGWFRQAPGKEREGVSSIRDNDGSTYYADSVKGRFTISSDNDKNTVYLQMNSLKPEDTAVYYCAAVPAGRLRFGEQWYPIYEYDAWGQGILVTVSS
notes: as for B1
B19: VHH 55A06 (VHH)
VHH: EVQLMESGGGLVQAGGSLRLSCAASGITLDDYAIGWFRQAPGKEREGVSSIRDNDGSTYYADSVKGRFTISSDNDKNTVNLQMNSLKPEDTAVYYCAAVPAGRLRFGEQWYPIYEYDAWGQGTLVTVSS
notes: as for B1
B20: VHH 64G02 (VHH)
VHH: EVQLVESGGGLVQAGGSLRLSCAISGFTLVDYAIGWFRQAPGKEREGVSSIRDNDGSTYYADSVKGRFIISSDNDKNTVYLQMNSLKPEDTAVYYCAAVPAGRLRFGEQWYPIYEYDAWGQGTLVTVSS
notes: as for B1
B21: VHH 64G12 (VHH)
VHH: EVQLVESGGGLVQAGGSLRLSCAVSGFTLDDYAIGWFRQAPGKEREGVSSIRENDGSTYYADSVQGRFTISSDNDKNTVYLRMNSLKPEDTAVYYCAAVPAGRLRFGEQWYPIYEYDAWGQGTLVTVSS
notes: as for B1
B22: VHH 64E12 (VHH)
VHH: EVQLVESGGGLVQAGGSLRLSCAVSGFTLDDYAIGWFRQAPGKEREGVSSIRDNDGSTYYADSVKGRSTISSDNDKNTVYLQMNSLKPEDTAVYYCAAVPAGRLRFGEQWYPIYEYDAWGQGTLVTVSS
notes: as for B1
B23: VHH 60C09 (VHH)
VHH: EVQLVESGGGLVQAGGSLRLSCAVSGITLDDYAIGWFRQAPGKEREGVSSIRDNDGSTYYADSVKWRFTISSDNDKNTVYLQMNSMKPEDTAVYYCAAVPAGRLRFGEQWYPIYEYDAWGQGILVTVSS
notes: as for B1
B24: VHH 53A06 (VHH)
VHH: EVQLVESGGSLVQAGGSLRLSCAASGLTLDDYAIGWFRQAPGKEREGVSSIRDNDGSTYYADSVKGRFTISSDNDKNTVYLQMNSLKPEDTAVYYCAAVPAGRLRFGEQWYPIYEYDAWGQGTLVTVSS
notes: as for B1
B25: VHH 64G01 (VHH)
VHH: EVQLVESGGGLVQAGGSLRLSCAASGFTLDDYAIGWFRQAPGKEREGVSSIRDNDGSTYYADSVKGRFIISSDNDKNTVYLQMNNLKPEDTAVYYCAAVPAGRLRYGEQWYPIYEYDAWGQGTLVTVSS
notes: as for B1

molecular target: T1, recombinant human Ang2-FLD; experiment: ProteOn off-rate assay, periplasmic extract 1:10 over coated human Ang2-FLD
Experimental: In a first cycle, amino acid substitutions are introduced randomly in both framework (FW) and complementary determining regions (CDR) using the error-prone PCR method. […] After a polish step, PCR products are inserted via unique restriction sites into a vector designed to facilitate phage display of the VHH library. […] Periplasmic extract of affinity matured clones is diluted 1:10 and injected across the “analyte channels” A1-A6.

| fold improvement (off-rate against VHH 00027) | koff | Binder |
| --- | --- | --- |
| 9.4 fold | 0.00012 s⁻¹ | B1 |
| 15.7 fold | 7.4e-05 s⁻¹ | B2 |
| 8.5 fold | 0.00014 s⁻¹ | B3 |
| 10.3 fold | 0.00011 s⁻¹ | B4 |
| 8.9 fold | 0.00014 s⁻¹ | B5 |
| 9.6 fold | 0.00012 s⁻¹ | B6 |
| 8.3 fold | 0.00014 s⁻¹ | B7 |
| 9.4 fold | 0.00012 s⁻¹ | B8 |
| 8.1 fold | 0.00013 s⁻¹ | B9 |
| 10.8 fold | 0.00011 s⁻¹ | B10 |
| 8.3 fold | 0.00014 s⁻¹ | B11 |
| 8 fold | 0.00015 s⁻¹ | B12 |
| 8.1 fold | 0.00015 s⁻¹ | B13 |
| 8.7 fold | 0.00014 s⁻¹ | B14 |
| 8.1 fold | 0.00016 s⁻¹ | B15 |
| 9.2 fold | 0.00013 s⁻¹ | B16 |
| 8.3 fold | 0.00016 s⁻¹ | B17 |
| 8.2 fold | 0.00014 s⁻¹ | B18 |
| 9.2 fold | 0.00013 s⁻¹ | B19 |
| 9.4 fold | 0.00012 s⁻¹ | B20 |
| 8.9 fold | 0.00013 s⁻¹ | B21 |
| 8.7 fold | 0.00013 s⁻¹ | B22 |
| 8.5 fold | 0.00016 s⁻¹ | B23 |
| 8 fold | 0.00016 s⁻¹ | B24 |
| 8.2 fold | 0.00014 s⁻¹ | B25 |
